Article PMC4814300 (Cell reports, 2016)

T1: Ven-SH3 (Gads, aa.256-322) (mouse, UniProt O89100 256-322)
T1 sequence (looked up): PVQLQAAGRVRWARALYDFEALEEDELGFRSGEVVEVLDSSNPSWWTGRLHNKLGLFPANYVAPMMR


Biological target: T1, Ven-SH3 (Gads, aa.256-322)
Assay: FRET or BRET

Q: PAPSIDRSTKPPL (peptide, UniProt Q13094 231-243, looked up) [Cer-SLP-76, aa.231-243] was tested. Which Kd did it give?
A: The Kd was 0.8 µM.

Q: For PAPSIDRSTRPPL (peptide, UniProt Q13094 231-243, looked up) [Cer-SLP-76 (K240R), aa.231-243], which Kd is on record?
A: The Kd was 24 µM.

Q: Which Kd does the source give for PAPSIKRSTKPPL (peptide, UniProt Q13094 231-243, looked up) [Cer-SLP-76 (D236K), aa.231-243] here?
A: The Kd was 7 µM.

Q: How did the Kd turn out when EPPPVDRNLKPDR (peptide, UniProt Q13480 515-527, looked up) [Cer-Gab1, aa.515-527] was run?
A: The Kd was 1 µM.

Q: How did the Kd turn out when NVPQIDRTKKPAV (peptide, UniProt P40818 403-415, looked up) [Cer-USP8, aa.403-415] was run?
A: Its Kd is 4 µM.
